Experimental findings from patent publication US20210317225A1 (Genmab, published 2021) are described below.

Sequences and labels used below:
B1: CD40-001-FEALxCD137-001-FEAR (bispecific antibody, human IgG1, kappa)
heavy 1: EVQLQQSGPDLVKPGASVKISCKTSGYTFTEYIMHWVKQSHGKSLEWIGGIIPNNGGTSYNQKFKDKATMTVDKSSSTGYMELRSLTSEDSAVYYCTRREVYGRNYYALDYWGQGTLVTVSSASTKGPSVFPLAPSSKSTSGGTAALGCLVKDYFPEPVTVSWNSGALTSGVHTFPAVLQSSGLYSLSSVVTVPSSSLGTQTYICNVNHKPSNTKVDKRVEPKSCDKTHTCPPCPAPEFEGGPSVFLFPPKPKDTLMISRTPEVTCVVVAVSHEDPEVKFNWYVDGVEVHNAKTKPREEQYNSTYRVVSVLTVLHQDWLNGKEYKCKVSNKALPAPIEKTISKAKGQPREPQVYTLPPSREEMTKNQVSLTCLVKGFYPSDIAVEWESNGQPENNYKTTPPVLDSDGSFLLYSKLTVDKSRWQQGNVFSCSVMHEALHNHYTQKSLSLSPGK
light 1: DIQMTQTTSSLSASLGDRVTITCSASQGINNYLNWYQQKPDGTVKLLIYYTSSLHSGVPSRFSGSGSGTDYSLTISNLEPEDIATYYCQQYSNLPYTFGGGTKLEIKRTVAAPSVFIFPPSDEQLKSGTASVVCLLNNFYPREAKVQWKVDNALQSGNSQESVTEQDSKDSTYSLSSTLTLSKADYEKHKVYACEVTHQGLSSPVTKSFNRGEC
heavy 2: QSVEESGGRLVTPGTPLTLTCTVSGFSLSSYAVSWVRQAPGKGLEWIGVIWNNGATHYATWAKGRFTISKASTTVDLKVTSPTTEDTATYFCARSANDAWSTYSDLWGQGTLVTVSSASTKGPSVFPLAPSSKSTSGGTAALGCLVKDYFPEPVTVSWNSGALTSGVHTFPAVLQSSGLYSLSSVVTVPSSSLGTQTYICNVNHKPSNTKVDKRVEPKSCDKTHTCPPCPAPEFEGGPSVFLFPPKPKDTLMISRTPEVTCVVVAVSHEDPEVKFNWYVDGVEVHNAKTKPREEQYNSTYRVVSVLTVLHQDWLNGKEYKCKVSNKALPAPIEKTISKAKGQPREPQVYTLPPSREEMTKNQVSLTCLVKGFYPSDIAVEWESNGQPENNYKTTPPVLDSDGSFFLYSRLTVDKSRWQQGNVFSCSVMHEALHNHYTQKSLSLSPGK
light 2: DIVMTQTPASVEAAVGGTVTIKCQASQTITNYLSWYQQKPGQPPKLLIYKASTLTSGVSSRFKGSGSGTEFTLTISDLESDDAATYYCQNYYYGSSSGYGFVFGGGTEVVVKRTVAAPSVFIFPPSDEQLKSGTASVVCLLNNFYPREAKVQWKVDNALQSGNSQESVTEQDSKDSTYSLSSTLTLSKADYEKHKVYACEVTHQGLSSPVTKSFNRGEC
B2: CD40-001-FEALxCD137-009-FEAR (bispecific antibody, human IgG1, kappa)
heavy 1: B1 heavy 1
light 1: B1 light 1
heavy 2: QSLEESGGRLVTPGTPLTLTCTVSGFSLNDYWMSWVRQAPGKGLEWIGYIDVGGSLYYASWAKGRFTISRTSTTVDLKMTSLTTEDTATYFCARGGLTYGFDLWGPGTLVTVSSASTKGPSVFPLAPSSKSTSGGTAALGCLVKDYFPEPVTVSWNSGALTSGVHTFPAVLQSSGLYSLSSVVTVPSSSLGTQTYICNVNHKPSNTKVDKRVEPKSCDKTHTCPPCPAPEFEGGPSVFLFPPKPKDTLMISRTPEVTCVVVAVSHEDPEVKFNWYVDGVEVHNAKTKPREEQYNSTYRVVSVLTVLHQDWLNGKEYKCKVSNKALPAPIEKTISKAKGQPREPQVYTLPPSREEMTKNQVSLTCLVKGFYPSDIAVEWESNGQPENNYKTTPPVLDSDGSFFLYSRLTVDKSRWQQGNVFSCSVMHEALHNHYTQKSLSLSPGK
light 2: DIVMTQTPASVSEPVGGTVTINCQASEDISSYLAWYQQKPGQRPKRLIYGASDLASGVPSRFSASGSGTEYALTISDLESADAATYYCHYYATISGLGVAFGGGTEVVVKRTVAAPSVFIFPPSDEQLKSGTASVVCLLNNFYPREAKVQWKVDNALQSGNSQESVTEQDSKDSTYSLSSTLTLSKADYEKHKVYACEVTHQGLSSPVTKSFNRGEC
B3: CD40-001-FEALxCD137-007-FEAR (bispecific antibody, human IgG1, kappa)
heavy 1: B1 heavy 1
light 1: B1 light 1
heavy 2: QSLEESGGRLVTPGTPLTLTCTASGFSLSSYDVSWVRQAPGKGLEYIGFIGSDGSAHYATWVKGRFTISKTSTTVDLKITSPTTEDTATYFCARDWNDYWAHDLWGPGTLVTVSSASTKGPSVFPLAPSSKSTSGGTAALGCLVKDYFPEPVTVSWNSGALTSGVHTFPAVLQSSGLYSLSSVVTVPSSSLGTQTYICNVNHKPSNTKVDKRVEPKSCDKTHTCPPCPAPEFEGGPSVFLFPPKPKDTLMISRTPEVTCVVVAVSHEDPEVKFNWYVDGVEVHNAKTKPREEQYNSTYRVVSVLTVLHQDWLNGKEYKCKVSNKALPAPIEKTISKAKGQPREPQVYTLPPSREEMTKNQVSLTCLVKGFYPSDIAVEWESNGQPENNYKTTPPVLDSDGSFFLYSRLTVDKSRWQQGNVFSCSVMHEALHNHYTQKSLSLSPGK
light 2: AQVLTQTTSPVSAAVGGTVTINCQASQIVTSKSALSWYQQKPGQPPRLLIYKASTLASGVPSRFSGSGSGTQFTLTISDLESDDAATYYCAGGYYNSGDLNPFGGGTEVVVKRTVAAPSVFIFPPSDEQLKSGTASVVCLLNNFYPREAKVQWKVDNALQSGNSQESVTEQDSKDSTYSLSSTLTLSKADYEKHKVYACEVTHQGLSSPVTKSFNRGEC
B4: CD40-001-FEALxCD137-005-FEAR (bispecific antibody, human IgG1, kappa)
heavy 1: B1 heavy 1
light 1: B1 light 1
heavy 2: QSVEESGGRLVTPGTPLTLTCTASGFTISDFHVTWVRQAPGKGLEWIGTIITSASTTAYATWARGRFTISKSSTTVNLKIVSPTTEDTATYFCARSTYTDTSGYYFDFWGQGTLVTVSSASTKGPSVFPLAPSSKSTSGGTAALGCLVKDYFPEPVTVSWNSGALTSGVHTFPAVLQSSGLYSLSSVVTVPSSSLGTQTYICNVNHKPSNTKVDKRVEPKSCDKTHTCPPCPAPEFEGGPSVFLFPPKPKDTLMISRTPEVTCVVVAVSHEDPEVKFNWYVDGVEVHNAKTKPREEQYNSTYRVVSVLTVLHQDWLNGKEYKCKVSNKALPAPIEKTISKAKGQPREPQVYTLPPSREEMTKNQVSLTCLVKGFYPSDIAVEWESNGQPENNYKTTPPVLDSDGSFFLYSRLTVDKSRWQQGNVFSCSVMHEALHNHYTQKSLSLSPGK
light 2: AQVLTQTASPVSAAVGGTVIINCQSSQSIYNGNRLSWYQQKPGQPPKLLIYSASTLASGVSSRFKGSGSGTQFTLAISDVQSDDAATYYCLGSYDCDSADCFAFGGGTEVVVERTVAAPSVFIFPPSDEQLKSGTASVVCLLNNFYPREAKVQWKVDNALQSGNSQESVTEQDSKDSTYSLSSTLTLSKADYEKHKVYACEVTHQGLSSPVTKSFNRGEC
B5: CD40-001-FEALxCD137-006-FEAR (bispecific antibody, human IgG1, kappa)
heavy 1: B1 heavy 1
light 1: B1 light 1
heavy 2: QSVEESGGRLVTPGTPLTLTCTVSGFSLSSYAMSWVRQAPGKGLEWIGIISTSGITYYASWAKGRFTISKTSTMVDLKITSPTTEDTATYFCARLNGFDDYVRYFDFWGLGTLVTVSSASTKGPSVFPLAPSSKSTSGGTAALGCLVKDYFPEPVTVSWNSGALTSGVHTFPAVLQSSGLYSLSSVVTVPSSSLGTQTYICNVNHKPSNTKVDKRVEPKSCDKTHTCPPCPAPEFEGGPSVFLFPPKPKDTLMISRTPEVTCVVVAVSHEDPEVKFNWYVDGVEVHNAKTKPREEQYNSTYRVVSVLTVLHQDWLNGKEYKCKVSNKALPAPIEKTISKAKGQPREPQVYTLPPSREEMTKNQVSLTCLVKGFYPSDIAVEWESNGQPENNYKTTPPVLDSDGSFFLYSRLTVDKSRWQQGNVFSCSVMHEALHNHYTQKSLSLSPGK
light 2: AIELTQTPSSVSAAVGGTVTINCQASESIASNLAWYQQKPGQPPKLLIYAASYLASGVPSRFKGSGSGTEYTLTISGVQSADAATYYCQSAFYVSSSDNAFGGGTEVVVKRTVAAPSVFIFPPSDEQLKSGTASVVCLLNNFYPREAKVQWKVDNALQSGNSQESVTEQDSKDSTYSLSSTLTLSKADYEKHKVYACEVTHQGLSSPVTKSFNRGEC
B6: CD40-001-FEALxCD137-008-FEAR (bispecific antibody, human IgG1, kappa)
heavy 1: B1 heavy 1
light 1: B1 light 1
heavy 2: QSLEESGGRLVTPGTPLTLTCTASGFSLSSYDMSWVRQAPGKGLEYIGYISSSGNTYYASWAKSRFTISKTSTTVDLKITSPTTEDTATYFCAREGDYWDFNLWGPGTLVTVSSASTKGPSVFPLAPSSKSTSGGTAALGCLVKDYFPEPVTVSWNSGALTSGVHTFPAVLQSSGLYSLSSVVTVPSSSLGTQTYICNVNHKPSNTKVDKRVEPKSCDKTHTCPPCPAPEFEGGPSVFLFPPKPKDTLMISRTPEVTCVVVAVSHEDPEVKFNWYVDGVEVHNAKTKPREEQYNSTYRVVSVLTVLHQDWLNGKEYKCKVSNKALPAPIEKTISKAKGQPREPQVYTLPPSREEMTKNQVSLTCLVKGFYPSDIAVEWESNGQPENNYKTTPPVLDSDGSFFLYSRLTVDKSRWQQGNVFSCSVMHEALHNHYTQKSLSLSPGK
light 2: AQVLTQTPSSVSAAVGGTVTINCQASQSISNLLAWYQQKPGQRPRLLIYRASTLASGVPSRFKGSGSGTEFTLTISDLESEDAATYYCAGGFPGLDTGATFGGGTEAVVTRTVAAPSVFIFPPSDEQLKSGTASVVCLLNNFYPREAKVQWKVDNALQSGNSQESVTEQDSKDSTYSLSSTLTLSKADYEKHKVYACEVTHQGLSSPVTKSFNRGEC

Chain of Human CD40 (P25942 21-277): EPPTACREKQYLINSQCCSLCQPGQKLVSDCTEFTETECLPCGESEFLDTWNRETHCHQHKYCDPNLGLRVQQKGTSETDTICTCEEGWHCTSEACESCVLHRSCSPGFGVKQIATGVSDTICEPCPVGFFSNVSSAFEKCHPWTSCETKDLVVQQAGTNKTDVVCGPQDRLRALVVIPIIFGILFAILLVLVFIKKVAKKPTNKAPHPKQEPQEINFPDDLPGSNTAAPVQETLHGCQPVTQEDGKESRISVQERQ

In one assay the target is Human CD137 (TNR9_Human) (human, UniProt Q07011 24-255). Kind of assay: cell-based or functional assay.
Chain of Human CD137 (TNR9_Human) (Q07011 24-255): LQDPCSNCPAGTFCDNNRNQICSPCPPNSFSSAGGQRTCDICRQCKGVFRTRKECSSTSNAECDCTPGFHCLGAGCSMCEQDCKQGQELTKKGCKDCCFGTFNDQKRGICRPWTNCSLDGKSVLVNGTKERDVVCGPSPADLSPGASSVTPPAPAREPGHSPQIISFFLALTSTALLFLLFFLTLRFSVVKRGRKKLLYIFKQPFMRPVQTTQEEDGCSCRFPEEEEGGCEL
Turning to B1, the “luciferase activity (RLU) of NF-KB/293/GFP-Luc cells transduced with CD137, incubated with K562_CD40” value is about 100 ng/mL.
B2: the “EC50 for induction of T-cell proliferation (antigen-specific CD8+ T-cell assay, proliferation index curves)” value was found to be 0.03 µg/mL and the “luciferase activity (RLU) of NF-KB/293/GFP-Luc cells transduced with CD137, incubated with K562_CD40” value is about 100 ng/mL.
As to B3, the “luciferase activity (RLU) of NF-KB/293/GFP-Luc cells transduced with CD137, incubated with K562_CD40” value is about 100 ng/mL.
In the case of B4, the “EC50 for induction of T-cell proliferation (antigen-specific CD8+ T-cell assay, proliferation index curves)” value was found to be 0.005 µg/mL and the “luciferase activity (RLU) of NF-KB/293/GFP-Luc cells transduced with CD137, incubated with K562_CD40” value is about 100 ng/mL.
Consider B5, for which the “luciferase activity (RLU) of NF-KB/293/GFP-Luc cells transduced with CD137, incubated with K562_CD40” value is about 100 ng/mL.
For the molecule B6, the “luciferase activity (RLU) of NF-KB/293/GFP-Luc cells transduced with CD137, incubated with K562_CD40” value is about 100 ng/mL.

A further assay addresses Human CD40 (human, UniProt P25942 21-277). As to the kind of experiment: cell-based or functional assay.
Consider B1, for which the “luciferase activity (RLU) of NF-KB/293/GFP-Luc cells transduced with CD40, incubated with K562_CD137” value was about 100 ng/mL.
With B2, the “luciferase activity (RLU) of NF-KB/293/GFP-Luc cells transduced with CD40, incubated with K562_CD137” value was about 100 ng/mL.
Take B3: the “luciferase activity (RLU) of NF-KB/293/GFP-Luc cells transduced with CD40, incubated with K562_CD137” value was about 100 ng/mL.
The same measure, in the same setting: next, B4: about 100 ng/mL; B5: about 100 ng/mL; B6: about 100 ng/mL.
